This is an account of results in article PMC7596504, “Molecular mechanism of the MORC4 ATPase activation” (Nature Communications, 2020).

Assay [1] concerns NCP252. Kind of assay: FRET, Gal4 titration into Cy3-Cy5 labeled NCP252. It counts as binding. The procedure:
Histone octamers unlabeled or labeled with Cy5 at H2AK119 were prepared as previously described. NCPs were reconstituted by combining octamer with 1.25× excess DNA and performing slow salt dialysis. Free DNA was then separated from fully reconstituted NCPs by sucrose gradient purification. NCPs for fluorescence polarization assays were reconstituted from unlabeled octamer and 207 bp DNA containing the 601 Widom sequence flanked with a 30 bp linker on either side and internally labeled with Fluorescein 27 bp in from the 5′ end. […]
(§1) Cy3-Cy5 NCP FRET efficiency measurements were carried out on a Horiba Scientific Fluoromax 4. […] LexA titrations were carried out in 20 mM Tris pH 7.5, 75 mM NaCl, 10% glycerol, 0.00625% Tween 20 buffer with 5 nM 147 bp Cy3-Cy5 NCPs mixed in 20 µL reaction volumes and allowed to incubate for 5 mins at 4 °C before FRET of the sample was measured. […] Gal4 (1–147) titrations were carried out in 10 mM Tris pH 8, 130 mM NaCl, 10% glycerol, 0.0075% Tween 20 buffer with 1 nM 252 bp Cy3-Cy5 nucleosomes mixed in 60 µL reaction volumes and allowed to incubate for 10 mins at room temperature before FRET of the sample was measured. […]

Assay [2] relates to NCP147. Nature of the assay: FRET, LexA titration into Cy3-Cy5 labeled NCP147. It counts as binding. The settings on record: addition of MORC4 ATPaseCW. On the procedure: (§2) Histone octamers unlabeled or labeled with Cy5 at H2AK119 were prepared as previously described. NCPs were reconstituted by combining octamer with 1.25× excess DNA and performing slow salt dialysis. Free DNA was then separated from fully reconstituted NCPs by sucrose gradient purification. NCPs for fluorescence polarization assays were reconstituted from unlabeled octamer and 207 bp DNA containing the 601 Widom sequence flanked with a 30 bp linker on either side and internally labeled with Fluorescein 27 bp in from the 5′ end. Cy3-Cy5 labeled NCPs for FRET assays were reconstituted with Cy5 labeled octamer plus either 147 bp 601 Widom DNA containing a LexA transcription factor binding site at bases 8–27[34], or 252 bp DNA containing the 601 Widom sequence with a 75 bp linker at the 3′ end, a 30 bp linker at the 5’ end, and a Gal4 transcription factor binding site at bases 8–26 in the 601 Widom sequence. The 147 bp LexA-binding DNA was labeled with Cy3 on the 5′ end, and the 252 bp Gal4-binding DNA was internally labeled with Cy3 34 bp in from the 5′ end.
LexA was expressed in E. coli, separated from genomic DNA and the proteome by polyethyleneimine precipitation, and salted out with ammonium sulfate. LexA was resuspended in buffer A (20 mM potassium phosphate pH 7, 0.1 mM EDTA, 10% glycerol, 1 mM DTT) + 200 mM NaCl and purified by a linear gradient to A + 800 mM NaCl over either a cellulose phosphate or HiTrap Heparin HP column. […]
as §1

Assay [3] relates to NCP207. Kind of assay: Fluorescence polarization binding to NCP207. On the procedure: Fluorescence polarization measurements were acquired with a Tecan infinite M1000Pro plate reader by exciting at 470 nm and measuring polarized emission at 519 nm with 5 nm excitation and emission bandwidths. The fluorescence polarization was calculated from the emission polarized parallel and perpendicular to the polarized excitation light. Fluorescence polarization measurements were carried out using increasing concentrations of MORC4 ATPaseCW, ATPase alone, or CW alone with 5 nM 207 bp Fluorescein-labeled NCPs in 15 mM Tris pH 7.5, 75 mM NaCl, 0.00625% Tween 20, and 5 mM dithiothreitol buffer in 30 µL reaction volumes. The samples were loaded into a Corning round bottom black polystyrene plate and incubated at room temperature for 10 min before fluorescence polarization measurements of the samples were taken. The data were then fit to a non-cooperative binding isotherm to determine S1/2 values. Errors represent a S.D. between the S1/2 values based on three runs.
as §2

Assay [4] relates to NCP147. Nature of the assay: Fluorescence polarization binding to NCP147.

B1: ATPaseCW: ATPaseCW cassette (aa 29–486) of human MORC4 (Q8TE76) (protein)
chain: GIRLSTMSPRYLQSNSSSHTRPFSAIAELLDNAVDPDVSARTVFIDVEEVKNKSCLTFTDDGCGMTPHKLHRMLSFGFTDKVIKKSQCPIGVFGNGFKSGSMRLGKDALVFTKNGGTLTVGLLSQTYLECVQAQAVIVPIVPFNQQNKKMIITEDSLPSLEAILNYSIFNRENDLLAQFDAIPGKKGTRVLIWNIRRNKNGKSELDFDTDQYDILVSDFDTEEKMTGGVTSELPETEYSLRAFCGILYMKPRMKIFLRQKKVTTQMIAKSLANVEYDTYKPTFTNKQVRITFGFSCKNSNQFGIMMYHNNRLIKSFEKVGCQVKPTRGEGVGVIGVIECNFLKPAYNKQDFEYTKEYRLTINALAQKLNAYWKEKTSQDNFETSTVARPIPKVPDQTWVQCDECLKWRKLPGKIDPSMLPARWFCYYNSHPKYRRCSVPEEQELTDEDLCLSKAKKQE
modifications: left off: GST, end not stated, cleaved
For B1, the “effect on nucleosome unwrapping-wrapping equilibrium” value in assay [1] is “shifts the unwrapping-wrapping equilibrium toward the wrapped state”. Further, the “effect on binding of LexA to NCP147” value in assay [2] is “decrease in binding of LexA to NCP147”. In assay [3] (ATPaseCW vs ATPase domain, either NCP147 or NCP207), the “tighter binding to NCP147 or NCP207 than the ATPase domain only” value is recorded as 2.5–6 fold. Besides, in assay [3] (NCP207 vs NCP147), the “increase in interaction with NCP207 relative to NCP147” value is recorded as ~ 2 fold. Further, the S1/2 in assay [3] (fluorescence polarization, 5 nM NCP207, pH 7.5, 75 mM NaCl, room temperature, 10 min, mean ± S.D. of n = 3) turned out to be 0.20 ± 0.07 µM; in assay [4] (fluorescence polarization, pH 7.5, 75 mM NaCl, room temperature, 10 min, mean of n = 3) it was 0.4 µM. The “decrease in binding to NCP147 compared to NCP207” value in assay [4] (NCP147 vs NCP207 (peer review file)) is 2 fold.
